The source of these data is US20210032313A1 (Daiichi Sankyo, published 2021).

One assay deals with T1, human KLK5 (human, UniProt Q9Y337 67-293).
T1 sequence: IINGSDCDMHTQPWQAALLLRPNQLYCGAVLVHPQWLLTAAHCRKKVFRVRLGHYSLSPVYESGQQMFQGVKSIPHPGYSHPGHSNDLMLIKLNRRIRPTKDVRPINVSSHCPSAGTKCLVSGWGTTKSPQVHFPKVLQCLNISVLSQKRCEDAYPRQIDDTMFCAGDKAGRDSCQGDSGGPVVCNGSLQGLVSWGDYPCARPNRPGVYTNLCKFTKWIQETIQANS
Briefly: cell-based or functional assay.

The target in the next assay is human KLK7 (human, UniProt P49862 30-253). Briefly: cell-based or functional assay.
Sequence of human KLK7 (P49862 30-253): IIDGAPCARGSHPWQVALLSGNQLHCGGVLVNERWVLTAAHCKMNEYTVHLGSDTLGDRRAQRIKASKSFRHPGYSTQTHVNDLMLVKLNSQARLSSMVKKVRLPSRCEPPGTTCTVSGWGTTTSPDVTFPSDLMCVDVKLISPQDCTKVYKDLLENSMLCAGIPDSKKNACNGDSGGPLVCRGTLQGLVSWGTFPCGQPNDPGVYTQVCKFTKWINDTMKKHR
A further assay deals with T2, human KLK14 (human, UniProt Q9P0G3 25-251).
T2 sequence: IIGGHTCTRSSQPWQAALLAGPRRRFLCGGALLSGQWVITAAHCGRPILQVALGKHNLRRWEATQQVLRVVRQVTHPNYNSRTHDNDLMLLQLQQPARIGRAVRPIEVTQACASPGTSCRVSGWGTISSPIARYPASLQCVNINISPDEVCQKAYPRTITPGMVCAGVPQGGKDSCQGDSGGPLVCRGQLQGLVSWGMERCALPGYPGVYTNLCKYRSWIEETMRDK
Briefly: cell-based or functional assay.

The target of the next assay is T3, mouse KLK5 (mouse).
T3 chain: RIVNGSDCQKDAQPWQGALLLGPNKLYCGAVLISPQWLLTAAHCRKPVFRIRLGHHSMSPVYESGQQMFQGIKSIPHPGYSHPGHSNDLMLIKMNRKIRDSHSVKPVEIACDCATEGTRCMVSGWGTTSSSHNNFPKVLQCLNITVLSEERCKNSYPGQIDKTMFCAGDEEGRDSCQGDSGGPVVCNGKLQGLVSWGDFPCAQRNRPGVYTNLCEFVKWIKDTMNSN
Briefly: cell-based or functional assay.

Another assay concerns the target mouse KLK7 (mouse, UniProt Q91VE3 26-249). Briefly: cell-based or functional assay.
Another assay concerns the target T4, mouse KLK14 (mouse, UniProt Q8CGR5 24-250).
T4 sequence: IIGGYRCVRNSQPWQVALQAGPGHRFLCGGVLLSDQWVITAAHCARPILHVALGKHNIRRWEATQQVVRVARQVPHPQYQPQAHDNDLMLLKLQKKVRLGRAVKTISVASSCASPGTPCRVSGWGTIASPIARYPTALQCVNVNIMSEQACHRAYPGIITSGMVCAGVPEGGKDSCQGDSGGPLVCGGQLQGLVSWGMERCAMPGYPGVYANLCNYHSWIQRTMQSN
Description: cell-based or functional assay.

Another assay deals with bChymotrypsin. Description: fluorogenic peptide substrate cleavage, 1 µM inhibitor. How it is done:
FIG. 3A includes graphs to evaluate the cross-reactivity of each inhibitory peptide with proteases, using the degradation of a peptide substrate as an index. For evaluating the Bovine trypsin inhibitory activity, trypsin (Pierce, 20233) with a final concentration of 5 nM and a substrate peptide Boc-Val-Pro-Arg-AMC (R&D Systems, Inc., ES011) with a final concentration of 100 μM were used. For evaluating the Human trypsin inhibitory activity, trypsin (Sigma-Aldrich Co. LLC, T6424) with a final concentration of 1 nM and a substrate peptide Boc-Val-Pro-Arg-AMC (R&D Systems, Inc., ES011) with a final concentration of 100 μM were used. For evaluating the Bovine α-chymotrypsin inhibitory activity, chymotrypsin (Worthington Biochemical Corporation, LS001434) with a final concentration of 10 nM and a substrate peptide Suc-Leu-Leu-Val-Tyr-MCA (PEPTIDE […], INC., 3120-v) with a final concentration of 100 μM were used.
(§1) The specificities for other proteases were evaluated using the degradation of a substrate peptide as an index. As in the method described in (3-1), 25 μL each of a protease and a sample diluted with an assay buffer were mixed (to a final concentration of sample of 1 μM), followed by a reaction at 37° C. for 20 minutes. Thereafter, 50 μL of a substrate diluted with an assay buffer was added thereto, and the fluorescence signal was measured using Enspire (PerkinElmer). An assay buffer (50 mM Tris, 150 mM NaCl, pH 8.0) was used for the evaluation of the protease activity, and a PROTEOSAVE® SS96F black plate (Sumitomo Bakelite Co., Ltd.) was used for the reaction and the measurement. The combinations of the protease and the substrate used for the evaluation of the specificity were as follows.

A further assay concerns the target T5, KLK12 (human, UniProt Q9UKR0).
T5 construct: commercial enzyme (R&D Systems, 3095-SE); 0.1 µg/mL in the assay; substrate Boc-Val-Pro-Arg-AMC 100 µM; also called Human KLK12; hKLK12
T5 sequence (protease, looked up): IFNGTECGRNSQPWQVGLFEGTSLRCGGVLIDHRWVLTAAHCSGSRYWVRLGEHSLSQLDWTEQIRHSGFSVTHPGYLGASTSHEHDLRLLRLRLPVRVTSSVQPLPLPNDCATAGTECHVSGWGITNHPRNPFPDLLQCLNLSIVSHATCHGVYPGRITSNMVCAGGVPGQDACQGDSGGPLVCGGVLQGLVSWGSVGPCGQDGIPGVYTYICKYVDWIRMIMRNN
Described as above. On the procedure:
FIG. 3G includes graphs to evaluate the cross-reactivity of each inhibitory peptide with proteases, using the degradation of a peptide substrate as an index. For evaluating the Human KLK7 inhibitory activity, hKLK7 with a final concentration of 1 μg/mL and a substrate peptide Mca-Arg-Pro-Lys-Pro-Val-Glu-Nval-Trp-Arg-Lys (Dnp)-NH₂ (R&D Systems, Inc., ES002) with a final concentration of 20 μM were used. For evaluating the Human KLK8 inhibitory activity, hKLK8 (UniProt: 060259, prepared by the inventors) with a final concentration of 5 nM and a substrate peptide Boc-Val-Pro-Arg-AMC (R&D Systems, Inc., ES011) with a final concentration of 100 μM were used. For evaluating the Human KLK12 inhibitory activity, hKLK12 (R&D Systems, Inc., 3095-SE) with a final concentration of 0.1 μg/mL and a substrate peptide Boc-Val-Pro-Arg-AMC (R&D Systems, Inc., ES011) with a final concentration of 100 μM were used.
as §1

Sequence of mouse KLK7 (Q91VE3 26-249): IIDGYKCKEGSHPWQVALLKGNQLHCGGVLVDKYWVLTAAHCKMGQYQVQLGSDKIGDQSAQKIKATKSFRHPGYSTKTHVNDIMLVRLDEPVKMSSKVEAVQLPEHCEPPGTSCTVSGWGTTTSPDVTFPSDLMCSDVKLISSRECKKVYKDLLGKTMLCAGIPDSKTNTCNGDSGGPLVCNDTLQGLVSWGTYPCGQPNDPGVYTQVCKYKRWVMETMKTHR

B1: KLK5/KLK14 inhibitory peptide K51069 (peptide)
chain: GPQFGLFSKYRTPNCSQVVETYCNRDYDPVCGSDMSTYANECTLCMKIREGGHNIKIIRNGPCGG
notes: SPINK2 mutant peptide made in E. coli
In the case of B1, the “IC50(nM) for hKLK5” value in the assay with human KLK5 came out at 6.8 nM. Further, in the assay with human KLK7, the “IC50(nM) for hKLK7” value is greater than 1000 nM. Besides, the “IC50(nM) for hKLK14” value with human KLK14 turned out to be 72 nM. For the same molecule, the “IC50(nM) for mKLK5” value with mouse KLK5 was less than 0.5 nM. In addition, in the assay with mouse KLK7, the “IC50(nM) for mKLK7” value came out at 181 nM. For the same molecule, the “IC50(nM) for mKLK14” value in the assay with mouse KLK14 worked out at 40 nM. For the same molecule, the binding result in the assay with bChymotrypsin and with KLK12 was “binds” in each case.

B2: KLK5/KLK14 inhibitory peptide K50015 (peptide)
chain: GPQFGLFSKYRTPNCYDTTTHYCSREYDPVCGSDMSTYANECTLCMKIREGGHNIKIIRNGPCGG
notes: as for B1
For the molecule B2, the “IC50(nM) for hKLK5” value with human KLK5 was determined as 6.8 nM. The “IC50(nM) for hKLK7” value with human KLK7 was greater than 1000 nM. Moreover, the “IC50(nM) for hKLK14” value in the assay with human KLK14 was determined as 17 nM. Besides, the “IC50(nM) for mKLK5” value in the assay with mouse KLK5 is less than 0.5 nM. Moreover, the “IC50(nM) for mKLK7” value with mouse KLK7 worked out at 248 nM. Also, in the assay with mouse KLK14, the “IC50(nM) for mKLK14” value turned out to be 108 nM. The binding result with bChymotrypsin and with KLK12 was “binds” in each case.
